The target in data set [1] is wild-type Cre recombinase (P1 Bacteriophage) (UniProt P06956). The experiment in a line: cell-based or functional assay.
Another data set concerns the target T1, Cre-B2.
T1 chain: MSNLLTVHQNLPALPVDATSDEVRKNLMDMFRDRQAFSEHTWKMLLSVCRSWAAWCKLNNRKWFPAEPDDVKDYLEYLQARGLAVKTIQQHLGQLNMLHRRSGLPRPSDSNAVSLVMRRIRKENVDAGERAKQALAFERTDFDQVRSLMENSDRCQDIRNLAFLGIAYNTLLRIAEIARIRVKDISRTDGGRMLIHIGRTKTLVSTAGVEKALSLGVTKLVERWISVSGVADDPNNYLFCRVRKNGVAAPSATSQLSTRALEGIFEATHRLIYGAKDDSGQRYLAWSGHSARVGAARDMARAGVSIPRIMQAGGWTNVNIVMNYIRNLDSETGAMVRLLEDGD

The target of data set [2] is Cre-B2 (P1 Bacteriophage) (UniProt P06956). The experiment in a line: cell-based or functional assay.
In data set [3] the target is Cre-A2 (P1 Bacteriophage) (UniProt P06956). Kind of data set: cell-based or functional assay.
The target in data set [4] is Cre-B1 (P1 Bacteriophage) (UniProt P06956). Kind of data set: cell-based or functional assay.
In a further data set the target is T2, Cre-E123LE-R337E.
T2 chain: T1 chain with D69E, K72R, E76L, E123L, R308E, R337E

The results in this text go back to patent US20170058297A1.

Residue numbers refer to the chain shown, from its start. Numbers in names are those of the source.

For “wild-type Cre recombinase (from UniProt P06956 1-343) (enzyme)”, in data set [1], the RFP positive cells of 7000 sorted, Ai14 mouse ES reporter cells, promoter hbb + cmv, replicate 1 amounted to 3910 cells; the RFP positive cells of 7000 sorted, Ai14 mouse ES reporter cells, promoter hbb + cmv, replicate 2 is 4220 cells; the RFP positive cells of 7000 sorted, Ai14 mouse ES reporter cells, promoter hbb + cmv, replicate 3 was determined as 4310 cells; the RFP positive cells of 7000 sorted, Ai14 mouse ES reporter cells, promoter hbb + sp1, replicate 1 came to 3820 cells. Further, in data set [1], the RFP positive cells of 7000 sorted, Ai14 mouse ES reporter cells, promoter hbb + sp1, replicate 2 was 3800 cells; the RFP positive cells of 7000 sorted, Ai14 mouse ES reporter cells, promoter hbb + sp1, replicate 3 stood at 4020 cells; the RFP positive cells of 7000 sorted, Ai14 mouse ES reporter cells, promoter hbb, replicate 1 was 372 cells; the RFP positive cells of 7000 sorted, Ai14 mouse ES reporter cells, promoter hbb, replicate 2 was determined as 391 cells. Further, the RFP positive cells of 7000 sorted, Ai14 mouse ES reporter cells, promoter hbb, replicate 3 in data set [1] amounted to 408 cells.

B1: Cre mutant with only the round 2 mutation E308R (protein)
chain: T1 chain with D69E, K72R, E76L
As to B1, the “recombinase activity in vitro” value is reported as “The salt-bridge swap from round 2 alone yields two Cre mutants with reduced but clear activity (data not shown)”.

B2: Cre mutant with only the round 2 mutation R337E (protein)
chain: T1 chain with D69E, K72R, E76L, R308E, R337E
Take B2: the “recombinase activity in vitro” value is given as “The salt-bridge swap from round 2 alone yields two Cre mutants with reduced but clear activity (data not shown)”.

B3: Cre-A2 (protein)
chain: T1 chain with K25R, D29R, R32E, D33L, Q35R, D69E, K72R, E76L, R308E, R337E
In the case of B3, the “recombinase activity in vitro (loxP excision, gel)” value is given as “while its activity is reduced relative to Cre-A1, the Cre-A2 monomer was still capable of forming a functional homotetrameric complex”. The “recombinase activity in vitro (loxP excision, gel)” value with Cre-B2 is given as “the Cre-A2+Cre-B2 combination exhibited strong recombinase activity”. For the same molecule, in data set [2], the RFP positive cells of 7000 sorted, Ai14 mouse ES reporter cells, promoter hbb + cmv, replicate 1 was 3180 cells; the RFP positive cells of 7000 sorted, Ai14 mouse ES reporter cells, promoter hbb + cmv, replicate 2 was 3410 cells; the RFP positive cells of 7000 sorted, Ai14 mouse ES reporter cells, promoter hbb + cmv, replicate 3 turned out to be 3700 cells; the RFP positive cells of 7000 sorted, Ai14 mouse ES reporter cells, promoter hbb + sp1, replicate 1 came to 3220 cells. In data set [2], the RFP positive cells of 7000 sorted, Ai14 mouse ES reporter cells, promoter hbb + sp1, replicate 2 amounted to 3340 cells; the RFP positive cells of 7000 sorted, Ai14 mouse ES reporter cells, promoter hbb + sp1, replicate 3 was 3590 cells; the RFP positive cells of 7000 sorted, Ai14 mouse ES reporter cells, promoter hbb, replicate 1 was found to be 573 cells; the RFP positive cells of 7000 sorted, Ai14 mouse ES reporter cells, promoter hbb, replicate 2 came to 528 cells. This molecule also displayed an RFP positive cells of 7000 sorted, Ai14 mouse ES reporter cells, promoter hbb, replicate 3 in data set [2] of 607 cells. In data set [3], the RFP positive cells of 7000 sorted, Ai14 mouse ES reporter cells, promoter hbb + cmv, replicate 1 was determined as 1130 cells; the RFP positive cells of 7000 sorted, Ai14 mouse ES reporter cells, promoter hbb + cmv, replicate 2 came out at 1120 cells; the RFP positive cells of 7000 sorted, Ai14 mouse ES reporter cells, promoter hbb + cmv, replicate 3 was found to be 1050 cells; the RFP positive cells of 7000 sorted, Ai14 mouse ES reporter cells, promoter hbb + sp1, replicate 1 amounted to 1050 cells. In addition, in data set [3], the RFP positive cells of 7000 sorted, Ai14 mouse ES reporter cells, promoter hbb + sp1, replicate 2 came out at 1000 cells; the RFP positive cells of 7000 sorted, Ai14 mouse ES reporter cells, promoter hbb + sp1, replicate 3 stood at 1120 cells; the RFP positive cells of 7000 sorted, Ai14 mouse ES reporter cells, promoter hbb, replicate 1 was 47 cells; the RFP positive cells of 7000 sorted, Ai14 mouse ES reporter cells, promoter hbb, replicate 2 amounted to 52 cells. This molecule returned an RFP positive cells of 7000 sorted, Ai14 mouse ES reporter cells, promoter hbb, replicate 3 in data set [3] of 41 cells.

B4: Cre-B1 (protein)
chain: T1 chain with R308E
For B4, the “recombinase activity in vitro (loxP excision, gel)” value is “All Cre-B mutants are inactive in isolation”. Besides, in data set [4], the RFP positive cells of 7000 sorted, Ai14 mouse ES reporter cells, promoter hbb + cmv, replicate 1 was determined as 1240 cells; the RFP positive cells of 7000 sorted, Ai14 mouse ES reporter cells, promoter hbb + cmv, replicate 2 is 1260 cells; the RFP positive cells of 7000 sorted, Ai14 mouse ES reporter cells, promoter hbb + cmv, replicate 3 turned out to be 1120 cells; the RFP positive cells of 7000 sorted, Ai14 mouse ES reporter cells, promoter hbb + sp1, replicate 1 is 1150 cells. Moreover, in data set [4], the RFP positive cells of 7000 sorted, Ai14 mouse ES reporter cells, promoter hbb + sp1, replicate 2 amounted to 1080 cells; the RFP positive cells of 7000 sorted, Ai14 mouse ES reporter cells, promoter hbb + sp1, replicate 3 was determined as 1200 cells; the RFP positive cells of 7000 sorted, Ai14 mouse ES reporter cells, promoter hbb, replicate 1 stood at 97 cells; the RFP positive cells of 7000 sorted, Ai14 mouse ES reporter cells, promoter hbb, replicate 2 stood at 102 cells. In addition, the RFP positive cells of 7000 sorted, Ai14 mouse ES reporter cells, promoter hbb, replicate 3 in data set [4] was 85 cells.

B5: Cre-B2 (protein)
chain: T1 chain
B5: the “recombinase activity in vitro (loxP excision, gel)” value is “All Cre-B mutants are inactive in isolation”. Further, in data set [2], the RFP positive cells of 7000 sorted, Ai14 mouse ES reporter cells, promoter hbb + cmv, replicate 1 turned out to be 2 cells; the RFP positive cells of 7000 sorted, Ai14 mouse ES reporter cells, promoter hbb + cmv, replicate 2 came to 2 cells; the RFP positive cells of 7000 sorted, Ai14 mouse ES reporter cells, promoter hbb + cmv, replicate 3 was found to be 4 cells; the RFP positive cells of 7000 sorted, Ai14 mouse ES reporter cells, promoter hbb + sp1, replicate 1 was 2 cells. Besides, in data set [2], the RFP positive cells of 7000 sorted, Ai14 mouse ES reporter cells, promoter hbb + sp1, replicate 2 came out at 1 cells; the RFP positive cells of 7000 sorted, Ai14 mouse ES reporter cells, promoter hbb + sp1, replicate 3 stood at 3 cells; the RFP positive cells of 7000 sorted, Ai14 mouse ES reporter cells, promoter hbb, replicate 1 was 0 cells; the RFP positive cells of 7000 sorted, Ai14 mouse ES reporter cells, promoter hbb, replicate 2 worked out at 0 cells. In data set [2], the RFP positive cells of 7000 sorted, Ai14 mouse ES reporter cells, promoter hbb, replicate 3 was found to be 1 cells.

B6: Cre-E123L-E308R (protein)
chain: T1 chain with D69E, K72R, E76L, E123L
Regarding B6, the “recombinase activity in vitro (loxP excision, gel)” value with Cre-E123LE-R337E is given as “In vitro assays indicated that these mutants do not form an obligate heterotetrameric pair”.
